Data from article PMC3017772, “The CaaX specificities of Arabidopsis protein prenyltransferases explain era1 and ggb phenotypes” (BMC Plant Biology, 2010).

B1: PFT (protein farnesyltransferase; PLP + ERA1) (Arabidopsis thaliana) (protein)
chain 1: PVVTRLIRLKCVGLRLDRSGLNRRICHGGHGESTRRRVMEELSSLTVSQREQFLVENDVFGIYNYFDASDVSTQKYMMEIQRDKQLDYLMKGLRQLGPQFSSLDANRPWLCYWILHSIALLGETVDDELESNAIDFLGRCQGSEGGYGGGPGQLPHLATTYAAVNALVTLGGDKALSSINREKMSCFLRRMKDTSGGFRMHDMGEMDVRACYTAISVASILNIMDDELTQGLGDYILSCQTYEGGIGGEPGSEAHGGYTYCGLAAMILINEVDRLNLDSLMNWAVHRQGVEMGFQGRTNKLVDGCYTFWQAAPCVLLQRLYSTNDHDVHGSSHISEGTNEEHHAHDEDDLEDSDDDDDSDEDNDEDSVNGHRIHHTSTYINRRMQLVFDSLGLQRYVLLCSKIPDGGFRDKPRKPRDFYHTCYCLSGLSVAQHAWLKDEDTPPLTRDIMGGYSNLLEPVQLLHNIVMDQYNEAIEFFFKAA
chain 2: not shown
notes: alpha/beta heterodimer co-expressed in E. coli Rosetta (pETDuet-1); N-terminal FLAG on PLP, N-terminal 6xHis on ERA1 (MHHHHHH-PVVTRLI from primer), tags kept; Co2+-IMAC purified
B2: PGGT1 (protein geranylgeranyltransferase type 1; PGGT I; PLP + GGB) (Arabidopsis thaliana) (protein)
chain 1: SETAVSIDSDRSKSEEEDEEEYSPPVQSSPSANFEKDRHLMYLEMMYELLPYHYQSQEINRLTLAHFIISGLHFLGARDRVDKDVVAKWVLSFQAFPTNRVSLKDGEFYGFFGSRSSQFPIDENGDLKHNGSHLASTYCALAILKVIGHDLSTIDSKSLLISMINLQQDDGSFMPIHIGGETDLRFVYCAAAICYMLDSWSGMDKESAKNYILNCQSYDGGFGLIPGSESHGGATYCAIASLRLMGYIGVDLLSNDSSSSIIDPSLLLNWCLQRQANDGGFQGRTNKPSDTCYAFWIGAVLKLIGGDALIDKMALRKFLMSCQSKYGGFSKFPGQLPDLYHSYYGYTAFSLLEEQGLSPLCPELGLPLLAAPGI
chain 2: not shown
notes: alpha/beta heterodimer co-expressed in E. coli Rosetta (pETDuet-1); N-terminal FLAG on PLP, N-terminal 6xHis on GGB (MHHHHHH-SETAVSI from primer), tags kept; Co2+-IMAC purified

Experiments:
Test in all cases: radiometric filter prenylation assay, Lineweaver-Burk
Type in all cases: biochemical, Arabidopsis thaliana
[1] = substrate: CC(C)=CCC/C(C)=C/CC/C(C)=C/CC/C(C)=C/COP(=O)(O)OP(=O)(O)O; conditions: co-substrate GFP-BD-CVIQ, 50 mM Hepes pH 7.5, 20 mM MgCl2, 5 mM ZnCl2, 5 mM DTT, 0.1% Zwittergent, 30°C, labelled compound
Excerpt: (§1) radiometric filter prenylation assay, Lineweaver-Burk on PFT (protein farnesyltransferase; PLP + ERA1)

[2] = substrate: CC(C)=CCC/C(C)=C/CC/C(C)=C/CO[P@@](=O)(O)OP(=O)(O)O; conditions: co-substrate GFP-BD-CVIQ, 50 mM Hepes pH 7.5, 20 mM MgCl2, 5 mM ZnCl2, 5 mM DTT, 0.1% Zwittergent, 30°C, labelled compound
Excerpt: as §1

[3] = substrate: CC(C)=CCC/C(C)=C/CC/C(C)=C/CC/C(C)=C/COP(=O)(O)OP(=O)(O)O; conditions: co-substrate GFP-BD-CVIL, 50 mM Hepes pH 7.5, 20 mM MgCl2, 5 mM ZnCl2, 5 mM DTT, 0.1% Zwittergent, 30°C, labelled compound
Excerpt: (§2) radiometric filter prenylation assay, Lineweaver-Burk on PGGT1 (protein geranylgeranyltransferase type 1; PGGT I; PLP + GGB)

[4] = substrate: CC(C)=CCC/C(C)=C/CC/C(C)=C/CO[P@@](=O)(O)OP(=O)(O)O; conditions: co-substrate GFP-BD-CVIL, 50 mM Hepes pH 7.5, 20 mM MgCl2, 5 mM ZnCl2, 5 mM DTT, 0.1% Zwittergent, 30°C, labelled compound
Excerpt: as §2

Protein | Km [1] | Km [2] | Km [3] | Km [4]
B1 | 0.7 ± 0.3 µM | 0.2 ± 0.1 µM |  | 
B2 |  |  | 0.8 ± 0.1 µM | 0.6 ± 0.5 µM
